Laboratory results reported in the supplement of paper PMC9112550, “Optimization of the antimicrobial peptide Bac7 by deep mutational scanning” (BMC Biology, 2022).

These sequences were tested on Escherichia coli TOP10 (assay: shrunken log2 fold change of peptide-encoding DNA abundance (4.5 h post-induction vs induction); higher = less antimicrobial activity (less host growth inhibition)). Conditions: time post-induction: 4.5 h; library: site-saturation at positions 5, 18, 19, 20.
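Note: peptides expressed intracellularly from a pBAD plasmid library in pooled LB shake-flask culture, induced with 0.3% L-arabinose, DNA abundance read by NGS, three biological replicates, DESeq2 with apeglm shrinkage.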

Sequence | shrunken log2 fold change
RRIRCRPPRLPRPRPRPFVTPRP | 0.663
RRIRGRPPRLPRPRPRPQVNPRP | 0.0954
RRIRMRPPRLPRPRPRPGWVPRP | 0.0878
RRIRDRPPRLPRPRPRPNEFPRP | -0.0102
RRIRHRPPRLPRPRPRPCLEPRP | -0.0502
RRIRIRPPRLPRPRPRPMHWPRP | -0.194
RRIRFRPPRLPRPRPRPNTTPRP | -0.0257
RRIRGRPPRLPRPRPRPSIWPRP | 0.511
RRIRIRPPRLPRPRPRPWYTPRP | -0.122
RRIRTRPPRLPRPRPRPMQCPRP | -0.00968
RRIRLRPPRLPRPRPRPITQPRP | -0.264
RRIRCRPPRLPRPRPRPTKSPRP | -0.0425
RRIRDRPPRLPRPRPRPARKPRP | 0.574
RRIRWRPPRLPRPRPRPPYVPRP | -0.284
RRIRIRPPRLPRPRPRPGHHPRP | -0.309
RRIRCRPPRLPRPRPRPLRGPRP | 0.835
RRIRTRPPRLPRPRPRPACYPRP | -0.0845
RRIRSRPPRLPRPRPRPSQIPRP | -0.0773
RRIRLRPPRLPRPRPRPTFGPRP | -0.0654
RRIRKRPPRLPRPRPRPYYLPRP | -0.278
RRIRTRPPRLPRPRPRPFGHPRP | -0.145
RRIRHRPPRLPRPRPRPLIHPRP | -0.575
RRIRYRPPRLPRPRPRPYWTPRP | -0.00804
RRIRIRPPRLPRPRPRPGYHPRP | -0.298
RRIRNRPPRLPRPRPRPDRTPRP | -0.161

Sequence | shrunken log2 fold change
RRIRGRPPRLPRPRPRPKANPRP | 0.836
RRIRDRPPRLPRPRPRPTRAPRP | 0.889
RRIRERPPRLPRPRPRPYAKPRP | -0.329
RRIRPRPPRLPRPRPRPVGDPRP | 0.365
RRIRVRPPRLPRPRPRPAEFPRP | 0.151
RRIRGRPPRLPRPRPRPCGEPRP | 0.931
RRIRERPPRLPRPRPRPEMCPRP | -0.0143
RRIRWRPPRLPRPRPRPDFRPRP | 0.169
RRIRKRPPRLPRPRPRPVRDPRP | 0.48
RRIRVRPPRLPRPRPRPLCNPRP | -0.139
RRIRRRPPRLPRPRPRPFAAPRP | 0.98
RRIRFRPPRLPRPRPRPADNPRP | 0.0503
RRIRTRPPRLPRPRPRPKKCPRP | -0.0193
RRIRWRPPRLPRPRPRPRYFPRP | -0.127
RRIRVRPPRLPRPRPRPAMVPRP | 0.118
RRIRHRPPRLPRPRPRPHFVPRP | -0.136
RRIRKRPPRLPRPRPRPRFLPRP | 0.101
RRIRIRPPRLPRPRPRPEQSPRP | 0.168
RRIRWRPPRLPRPRPRPQCFPRP | 0.146
RRIRCRPPRLPRPRPRPFDEPRP | -0.0888
RRIRYRPPRLPRPRPRPRWDPRP | -0.0245
RRIRARPPRLPRPRPRPKSDPRP | 0.239
RRIRHRPPRLPRPRPRPICTPRP | -0.485
RRIRMRPPRLPRPRPRPGGDPRP | 1.58
RRIRRRPPRLPRPRPRPMTIPRP | 0.0416

Sequence | shrunken log2 fold change
RRIRMRPPRLPRPRPRPYYNPRP | -0.709
RRIRNRPPRLPRPRPRPMHQPRP | -0.19
RRIRPRPPRLPRPRPRPHWTPRP | -0.119
RRIRSRPPRLPRPRPRPMFSPRP | -0.49
RRIRLRPPRLPRPRPRPRRIPRP | 0.214
RRIRIRPPRLPRPRPRPQGMPRP | -0.501
RRIRERPPRLPRPRPRPDCVPRP | -0.191
RRIRQRPPRLPRPRPRPPEIPRP | -0.0671
RRIRQRPPRLPRPRPRPYCQPRP | -0.0564
RRIRDRPPRLPRPRPRPCWMPRP | -0.0868
RRIRSRPPRLPRPRPRPETYPRP | -0.293
RRIRKRPPRLPRPRPRPRVSPRP | 0.198
RRIRWRPPRLPRPRPRPFKDPRP | -0.252
RRIRWRPPRLPRPRPRPSFRPRP | -0.261
RRIRTRPPRLPRPRPRPLEIPRP | 0.554
RRIRERPPRLPRPRPRPVRCPRP | 0.162
RRIRCRPPRLPRPRPRPMEAPRP | -0.0255
RRIRCRPPRLPRPRPRPHNKPRP | -0.75
RRIRLRPPRLPRPRPRPIRCPRP | -0.0375
RRIRLRPPRLPRPRPRPWWCPRP | -0.0878
RRIRGRPPRLPRPRPRPDGQPRP | 0.175
RRIRHRPPRLPRPRPRPSNCPRP | -0.337
RRIRWRPPRLPRPRPRPSTFPRP | -0.616
RRIRLRPPRLPRPRPRPQLGPRP | -0.0132
RRIRYRPPRLPRPRPRPWRQPRP | -0.00152

Sequence | shrunken log2 fold change
RRIRTRPPRLPRPRPRPEQYPRP | -0.0335
RRIRPRPPRLPRPRPRPISTPRP | -0.324
RRIRTRPPRLPRPRPRPGSKPRP | 0.0896
RRIRNRPPRLPRPRPRPIDGPRP | -0.00962
RRIRSRPPRLPRPRPRPMLWPRP | 0.619
RRIRDRPPRLPRPRPRPIMKPRP | -0.195
RRIRVRPPRLPRPRPRPQIPPRP | -0.298
RRIRLRPPRLPRPRPRPEVRPRP | -0.0732
RRIRVRPPRLPRPRPRPWYSPRP | -0.183
RRIRTRPPRLPRPRPRPYNHPRP | -0.138
RRIRVRPPRLPRPRPRPFFVPRP | -0.0592
RRIRFRPPRLPRPRPRPQHKPRP | -0.51
RRIRFRPPRLPRPRPRPYTHPRP | -0.532
RRIRRRPPRLPRPRPRPGIAPRP | 0.185
RRIRCRPPRLPRPRPRPRPPPRP | 1.49
RRIRGRPPRLPRPRPRPDFHPRP | -0.0976
RRIRPRPPRLPRPRPRPWRMPRP | 0.217
RRIRFRPPRLPRPRPRPPAVPRP | 0.713
RRIRARPPRLPRPRPRPASQPRP | 0.445
RRIRQRPPRLPRPRPRPIKWPRP | 0.00957
RRIRKRPPRLPRPRPRPTLCPRP | 0.403
RRIRKRPPRLPRPRPRPAAKPRP | 0.0103
RRIRFRPPRLPRPRPRPTEQPRP | -0.0361
RRIRMRPPRLPRPRPRPIYFPRP | -0.141
RRIRCRPPRLPRPRPRPFTPPRP | -0.497

Sequence | shrunken log2 fold change
RRIRGRPPRLPRPRPRPKVLPRP | 0.177
RRIRGRPPRLPRPRPRPQKQPRP | 0.154
RRIRNRPPRLPRPRPRPHVNPRP | -0.237
RRIRRRPPRLPRPRPRPYLTPRP | 0.0355
RRIRARPPRLPRPRPRPNYLPRP | 0.00106
RRIRYRPPRLPRPRPRPLAHPRP | -0.15
RRIRLRPPRLPRPRPRPWCDPRP | -0.437
RRIRVRPPRLPRPRPRPDNKPRP | -0.581
RRIRDRPPRLPRPRPRPSFIPRP | -0.572
RRIRERPPRLPRPRPRPGDHPRP | -0.0518
RRIRARPPRLPRPRPRPDMIPRP | -0.0395
RRIRWRPPRLPRPRPRPQNFPRP | 0.0414
RRIRKRPPRLPRPRPRPCTYPRP | 0.0972
RRIRARPPRLPRPRPRPKMYPRP | 0.152
RRIRGRPPRLPRPRPRPDVLPRP | 0.246
RRIRHRPPRLPRPRPRPRFFPRP | 0.152
RRIRFRPPRLPRPRPRPHGWPRP | 0.309
RRIRLRPPRLPRPRPRPFTCPRP | -0.115
RRIRHRPPRLPRPRPRPCQAPRP | -0.119
RRIRYRPPRLPRPRPRPLEWPRP | 0.00157
RRIRGRPPRLPRPRPRPTALPRP | 1.12
RRIRFRPPRLPRPRPRPFTCPRP | -0.271
RRIRHRPPRLPRPRPRPSCTPRP | -0.263
RRIRGRPPRLPRPRPRPMLLPRP | 0.548
RRIRRRPPRLPRPRPRPDQAPRP | -0.00925
